From IntAct's records for PubMed 12586840

Molecular target: ap2a_human TFAP2A (UniProt P05549)
Sequence (P05549 whole entry): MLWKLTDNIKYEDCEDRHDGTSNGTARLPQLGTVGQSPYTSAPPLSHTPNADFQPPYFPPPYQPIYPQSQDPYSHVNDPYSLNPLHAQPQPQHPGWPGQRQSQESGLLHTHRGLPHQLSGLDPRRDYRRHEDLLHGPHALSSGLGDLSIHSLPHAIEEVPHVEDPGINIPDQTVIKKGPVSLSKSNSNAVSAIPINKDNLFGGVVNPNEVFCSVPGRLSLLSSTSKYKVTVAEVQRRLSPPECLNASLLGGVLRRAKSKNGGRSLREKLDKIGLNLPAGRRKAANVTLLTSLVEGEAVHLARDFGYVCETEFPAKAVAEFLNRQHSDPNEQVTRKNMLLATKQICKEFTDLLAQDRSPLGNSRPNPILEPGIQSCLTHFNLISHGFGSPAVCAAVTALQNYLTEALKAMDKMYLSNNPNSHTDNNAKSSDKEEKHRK

effect of a mutation on the interaction: disrupting interaction
Substance: Histone acetyltransferase p300 (Homo sapiens), Q09472 D1399Y
